experiment: soluble on expression in E. coli; label from the status in PepcDB or PDB records

Sequence | soluble on expression in E. coli
SRYAIYWTPEDGPLARFGRSWLGWDPVTAEPAAHPAIEDLPRDVALITQAPRKYGLHATLKPPFRLADGADVTDLHAAVVALCPYLAPVTLPGLKLDRIGGFLALVPAGNEEPLADLAAEVMRALDGFRAPLTEAELARRRPERLTPRQRGHLADWGYPYVLDDYRFHVTLTGELPEAELAEVVTVLEPLLEPILAEPVRIASLCLFAEASDGRFRMLERLPIT | not soluble
MGSDKIHHHHHHMGLPMWANGDWRGSLYARHAPSSGMLHDYGAVFGSVEGNTTFYSGPPKADTVAQWARQAPADFRFCFKLPAQLTHDKRLVGIEDDFRTFCDALAPLHDRLGPTMVQLPRDFGARELPALAAFLEKWPSDMPCAVEVRHSEFFHKGDAEQQLNRLLITLGVDRVMLDVRPLFATPAGDDARLIKAQSEKPKRPLHVISTGRMPIVRFIGHCDMEINERLFAPWCERLALWIKQGKTPFLFVHTPDNRQAPQLARRFHARLSRCVTLPPLGDFPGERQSALF | not soluble
MPMVVAKRNARERTRVHTVNQAFLVLKQHLPSLRQFTKRVSKLRILNAAITYIDTLLKLIQSSEAVPQSVISATLGPIVPTPVRAVHKISKPDTVISQPIRPLAPVLPRHETYLPAPIAATCAPDHSLVDYRSTFASSLAPPVPMQMPSVFSPQPTFPYMKSLLDYPTYFYQPSTAPPPPPAPTAPQSHLIVNNQLVPMPSYQCF | not soluble
MPTLRFRQKVVHKLNNSGIIARPKTVIHPIKMKTTLIAAAEVDRLETWQRYTSNMCHGCHSTCCTLPVEVKIKDLIRIGVVDEFEKDEPPKNVAKRLQKEGIIERFNQKSGIFTLTRMSNDDCMYLDRKSRLCTIYDKRPDTCRNHPKVGPRPGYCAYKPKVVGRLEHHHHHH | not soluble
GSHMLPSCKEDEYPVGSECCPKCSPGYRVKEACGELTGTVCEPCPPGTYIAHLNGLSKCLQCQMCDPAMGLRASRNCSRTENAVCGCSPGHFCIVQDGDHCAACRAYA | soluble
MGSDKIHHHHHHMESSFEVETRTVFDRYQRQQENDDHIFDRLVSLIEEEYFGLPTGSFRGLDVLDAGCGSNANASWAFLDKGARNVVSLELSNDWMDCARKRLSRFGLRSELVAGSVLDLPFDDFSFDFVHCAGVLPHTSNPKKGFEELARVTRPGGSFFLTIMGTANGVIYRCINHLRELYQSDEQFRSSIDNLDASTAREAINWLLRIKDGEEKEYIPGENEFFRSLFDDDLFVTIRDRFQAPTYHEFAFTEAQIRGWYGECGFEKIRRISRYTKNFHNLRRFLAPMYRHYDHPLARFWFGDGCIQMIGEKPST | not soluble
MGFAPVTPAAVETYDPDVDHDDESNGLDGFRVRSKRSGKFSGGYSDSPREVGDGYGVRSRARSNMKMYGGFKSEFDSDHDSGSGFGLKRKYNGNPKVSADFDADSDDEIVLVPKATRLRTHGKPSSGDFSHGSGGGFPLKSFGDRNFASHGFKPKNFSKPEPNFSQDLDYDDEFDDDRAEREGFNPRIQSSRSSSRVNGYSRKDGSYPRNTGASNGYGSSSRFKHEQMNAAAEVESDPIDEVVSSVKMLTEMFVRVENSKMEMMREMEKSRMEMELKHCQMMLESQQQIIGAFAEALSEKKSTNARRPVS | not soluble
MGSDKIHHHHHHMSVLKGSQNVTICNANGLKLAARLELPDIPPRGMAMIAPAFGCTKEILIASRTARRLLQYGIGSLRLDFTGIGQSEGDFSMTNLDTQVEDFVSAADWLRQHVAAPNILIGHSFGGLVALNACHSIPESRACVTIATPESPAHVLEIIGEDKTREIMQGGATSIEVNRQPYVLRRQFADHARQFRLHDTMQRLRVPVLIMHSPRDEMVPMRHAHAIFETARHPKSLLAIEDADHMVSERPAAEFVASTIGLWGMRYLTDG | not soluble
MGSDKIHHHHHHMYLGIDVGGTHTDAVVLDAQKRIQAWAKVPTLHHDLLSSVTQALDSVLQSVAAQDIVRLNLSTTLSTNAIVESKTEDVGVLVSSGPGIDPENFRQGGFFFPLSGSIDHRGKVIAAMEQDELAAAVRRCCDSGIRVYAAVGKFSTRNPDHEETMAHEAMQCGDFVSMGHRLSGQLSFPRRVATAYYNSAVWRLYNSFADAVESSARAKGVTAPVHILKADGGTMPLAVSRRMPVESILSGPAASVMGIVALYDIREDAVILDIGGTTTDIALFASGSPVIENDGISVGSYPTLVRALRTLSIGVGGDSRLRIAAGAVRVGPDRSGPCVANGGTHVALMDAMNYLEVAAVGDVEASREAVRQLASLWDMYPEKLAREALDTAVNTICAAVDRLLDEVNAQPVYTIIELLDGVKLNPGRVFVMGGPAAAFAPLLRNVMNRRIDVPRDHAVANAVGAALTRTTAELELFADTEKGLVFVPTLGLRREAPLGYNLDDAVADAGRYLTESLAGMGIHIRPEDVDVLEAGSFNMVDMYGGKGRNIRVKCQVRPGISL | not soluble

Source: the DeepSol protein solubility set
